From patent US6518061 come the findings set out here.

Test [1] deals with IL-13 receptor (IL-13R) on human tumor cells (human). Put plainly: cell-based or functional assay.
The target is the same in test [2]. The test can be described thus: displacement of [^125I]-IL-13 from HL-RCC cells.
Test [3] has the same target. The test can be described thus: radioligand (0.64 nM) binding to PM-RCC cells, 4 C, 2 h.
Test [4] has the same target. The test can be described thus: displacement of ^125I-IL-13 from WS-RCC and HL-RCC cells by excess unlabeled IL-13.
For test [5] the target is unchanged. The test can be described thus: ^125I-IL-13 displacement by unlabeled IL-13 on HL-RCC cells, LIGAND/Scatchard analysis.
Test [6] has the same target. Put plainly: ^125I-IL-13 displacement by unlabeled IL-13 on MA-RCC cells, LIGAND/Scatchard analysis.
The target is the same in test [7]. Put plainly: ^125I-IL-13 displacement by unlabeled IL-13 on PM-RCC cells, LIGAND/Scatchard analysis.
Test [8] shares this target. The test can be described thus: ^125I-IL-13 displacement by unlabeled IL-13 on WS-RCC cells, LIGAND/Scatchard analysis.
Test [9] shares this target. Put plainly: ^125I-hIL-13 displacement by unlabeled hIL-13 on A-172 glioma cells, LIGAND/Scatchard analysis.
Test [10] shares this target. The test can be described thus: ^125I-hIL-13 displacement by unlabeled hIL-13 on T-98G glioma cells, LIGAND/Scatchard analysis.
Test [11] has the same target. The test can be described thus: ^125I-hIL-13 displacement by unlabeled hIL-13 on SNB-19 glioma cells, LIGAND/Scatchard analysis.
For test [12] the target is unchanged. Put plainly: ^125I-hIL-13 displacement by unlabeled hIL-13 on U-251 MG glioma cells, LIGAND/Scatchard analysis.
Test [13] shares this target. The test can be described thus: ^125I-hIL-13 displacement by unlabeled hIL-13 on U-373 MG glioma cells, LIGAND/Scatchard analysis.

Usually IC50 stands for the concentration at which inhibition is half-maximal. A high value points to lower potency. What is called Kd is the concentration at which binding is half-saturated. Read a high Kd as weaker binding.

Sequence of IL-13 receptor (IL-13R) on human tumor cells (human) (Q14627 whole entry): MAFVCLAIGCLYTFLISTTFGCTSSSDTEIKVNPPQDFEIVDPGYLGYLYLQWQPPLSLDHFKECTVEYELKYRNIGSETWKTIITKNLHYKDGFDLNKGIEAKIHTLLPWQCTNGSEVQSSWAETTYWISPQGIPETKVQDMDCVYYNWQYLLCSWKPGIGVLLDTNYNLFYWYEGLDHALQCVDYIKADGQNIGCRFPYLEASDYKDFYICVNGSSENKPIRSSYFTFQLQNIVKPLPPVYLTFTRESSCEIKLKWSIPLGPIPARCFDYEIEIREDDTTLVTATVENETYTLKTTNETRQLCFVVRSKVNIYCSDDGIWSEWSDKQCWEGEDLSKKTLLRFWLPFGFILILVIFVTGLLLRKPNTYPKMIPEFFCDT

As for “hIL-13-PE4E (from UniProt P35225 33-146; P11439 26-638)”, the IC50, cytotoxicity on several glioma cell lines in test [1] is under 0.1 ng/mL.

Regarding “recombinant human interleukin 13 (IL-13) (from UniProt P35225 33-146) (ligand)”, the IC50 in test [2] stood at 20 nM. The substance further came in with a cpm specifically bound in test [3] of 182000 cpm. In test [4], this substance yielded a % displacement of total binding of 85%. Also, the Kd in test [5] was 3.1 nM; in [6], 0.128 nM; in [7], 0.394 nM; in test [8], 0.247 nM; in [9] it was 1.6 nM; in [10], 1 nM. Moreover, the Kd in [11] was 1.4 nM; in test [12] it was 2.1 nM; in [13], 1.8 nM.
